Results as given in patent US20170198026A1, “Compositions And Methods For Treating Tumors And Immune Based Inflammatory Diseases” (The Schepens Eye Research Institute, Inc., priority 2014, published 2017).
Entries after “also recorded” stand apart in the source; their conditions may differ.

T1: EMR2 (Homo sapiens, UniProt Q9UHX3)
T1 construct: endogenous in cells; host or cells: human peripheral blood monocytes (from Leukopac PBMC) cultured with TGFb2 and tetanus toxoid, giving tolerogenic APC
T1 sequence (Q9UHX3 24-823): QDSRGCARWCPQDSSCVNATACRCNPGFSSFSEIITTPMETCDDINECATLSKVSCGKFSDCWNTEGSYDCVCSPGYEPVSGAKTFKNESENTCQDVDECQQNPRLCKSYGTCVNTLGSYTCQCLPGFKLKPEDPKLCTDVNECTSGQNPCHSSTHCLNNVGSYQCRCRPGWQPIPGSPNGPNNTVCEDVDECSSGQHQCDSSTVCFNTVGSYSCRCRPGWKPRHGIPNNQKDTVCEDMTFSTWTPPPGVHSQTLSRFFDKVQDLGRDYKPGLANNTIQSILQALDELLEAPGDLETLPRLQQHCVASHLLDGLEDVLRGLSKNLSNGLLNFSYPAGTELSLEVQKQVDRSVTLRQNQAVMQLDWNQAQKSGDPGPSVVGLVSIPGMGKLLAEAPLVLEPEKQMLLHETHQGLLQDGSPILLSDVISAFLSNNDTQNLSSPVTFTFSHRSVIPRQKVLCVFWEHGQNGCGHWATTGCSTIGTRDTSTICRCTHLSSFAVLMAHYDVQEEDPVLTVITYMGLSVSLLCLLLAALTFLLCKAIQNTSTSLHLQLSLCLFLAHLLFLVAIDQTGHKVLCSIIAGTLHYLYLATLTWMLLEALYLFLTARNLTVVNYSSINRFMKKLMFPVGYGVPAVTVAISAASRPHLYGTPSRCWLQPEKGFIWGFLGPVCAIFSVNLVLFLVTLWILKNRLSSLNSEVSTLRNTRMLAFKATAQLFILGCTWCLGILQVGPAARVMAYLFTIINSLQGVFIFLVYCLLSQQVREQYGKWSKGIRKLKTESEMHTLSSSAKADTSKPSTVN


Experiments:
EMR2 = target: T1, EMR2; assay: Blocking EMR2 ligand binding with soluble chondroitin sulfate in tolerogenic APC / lymphocyte co-culture; format: cell-based
Method: Monocytes were cultured as outlined above. Soluble chondroitin sulfate from shark cartilage (Sigma-Aldrich, St. Louis, Mo.) was used to bind to EMR and block signaling at a concentration of 1.5 mg/mL. CD25 and FoxP3 expression as well as intracellular cytokine functionality was tested.
To mediate cell interactions, EMR2 binds to chondroitin sulfate GAGs on the opposing cell. To block EMR2 signaling and the induction of T regulatory cells, we added soluble chondroitin sulfate to the cell culture. Saturating the culture with soluble chondroitin sulfate competitively binds up available EMR2 molecules and subsequently block signaling from the APC to the lymphocytes.
We treated APC with soluble chondroitin sulfate (1.5 mg/mL) in the same conditions listed above. By using a dose curve, we found 1.5 mg/mL was the ideal concentration for saturating EMR2 receptors. Post co-culture with lymphocytes, we repeated surface and intracellular staining of lymphocytes to check for differences in FoxP3+ cells (FIG. 9).

human APCs = assay: Surface markers on human tolerogenic APC by flow cytometry; format: cell-based
Method: Isolated cells were plated on sterile petri dishes (BD Falcon, Franklin Lakes, N.J.) in serum-free culture medium, RPMI-1640 supplemented with Glutamax (Invitrogen, Carlsbad, Calif.), 1 mM sodium pyruvate, 0.1 mM non-essential amino acids, 100 U/mL Penicillin/Streptomycin, 10 mM HEPES (Invitrogen, Carlsbad, Calif.), Insulin/Transferrin/Selenium (ITS) (Invitrogen, Carlsbad, Calif.), and 0.1% BSA (Sigma-Aldrich, St. Louis, Mo.). Cells were cultured with or without 1 ng/mL porcine TGFβ2 (R&D Systems, Minneapolis, Minn.) for at least six hours. Cells were then pulsed with or without tetanus toxoid (TT) antigen (List Biological Laboratories, Campbell, Calif.) in serum-free media and incubated overnight in 37° C., 5% CO2.
APC were analyzed by flow cytometry to confirm the expression of myeloid and tolerogenic markers. CD14 (constitutive on monocyte-derived cells), Immunoglobulin-like transcript 3 (ILT3, cell surface immunoglobulin that co-ligates to APC stimulatory receptors to downregulate activation signals (Cella et al., 1997)), Programmed cell death 1 ligand 1 (PD-L1, well-known immunosuppressive ligand), and EMR2 were measured. Monoclonal antibodies to ILT3 and PD-L1 were purchased from eBioscience (San Diego, Calif.) and the monoclonal antibody to EMR2 was purchased from R&D Systems (Minneapolis, Minn.).

[1] = both TGFβ2 (1 ng/mL) and antigen (TT) compared to antigen or TGFβ2 alone

Molecule | CD25+ FoxP3+ cell populations (Treg production) (EMR2; 1.5 mg/mL soluble chondroitin sulfate, APC treated with antigen and TGFβ, CD4+ gated lymphocytes post co-culture) | ideal concentration for saturating EMR2 receptors (EMR2; dose curve, APC culture) | EMR2 expression on APC (human APCs; TGFβ2 (1 ng/mL) and antigen (TT)) | ILT3 expression on APC (human APCs; [1]) | PD-L1 expression on APC (human APCs; [1])
chondroitin sulfate [soluble chondroitin sulfate] | no increase; also recorded: successfully blocks Treg production | 1.5 mg/mL | – | – | –
TGFβ2: porcine TGFβ2 (R&D Systems), aqueous humor immunosuppressive factor used to generate tolerogenic APC (protein, UniProt P09858 303-435, looked up) Transforming growth factor …: ALDAAYCFRNVQDNCCLRPLYIDFKRDLGWKWIHEPKGYNANFCAGACPYLWSSDTQHSRVLSLYNTINPEASASPCCVSQDLEPLTILYYIGKTPKIEQLSNMIVKSCKCSKTKLAAFARLYHSHSNLGSET | – | – | also upregulated | significantly (p≦0.05) upregulated | significantly (p≦0.05) upregulated
